Measurements taken from article PMC3192050, “Structural Basis for Specific Binding of Human MPP8 Chromodomain to Histone H3 Methylated at Lysine 9” (PLoS ONE, 2011).

How the values were obtained:
hMPP8 chromodomain = molecular target: T1, hMPP8 chromodomain (Homo sapiens, UniProt Q99549); experiment: Surface plasmon resonance (SPR) binding of histone peptides to hMPP8 chromodomain; details: BIAcore3000, 14°C, synthetic peptide residues 19 to 33, 150 mM NaCl, 20 mM Tris, pH 8.0, 1 mM DTT, Fig. S1F right panel
T1 construct: The chromodomain of human MPP8 (residue 56–116) was inserted into a pET28a-MHL vector; His-tag (cleaved yes); made in house; host or cells: E. coli BL21 (DE3) Codon plus RIL
T1 sequence (Q99549 56-116): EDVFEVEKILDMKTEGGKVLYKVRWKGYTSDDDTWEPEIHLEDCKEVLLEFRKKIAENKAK
Protocol: The binding affinity of hMPP8 chromodomain and histone peptides were determined at 14°C using BIAcore3000 instruments. The biotinylated peptides were immobilized on a streptavidin-coated biosensor chip (SA-Chip). All experiments were carried out in the continuous-follow buffer (150 mM NaCl, 20 mM Tris, pH 8.0, 1 mM DTT). The injected protein sample was flowed for 3 min over the peptide coated SA-Chips at a follow rate of 30 ml/min and the change of response unit (RU) was recorded. Protein dissociation was monitored for 3 min by following the continuous-follow buffer at a follow rate of 30 ml/min over the SA-Chips. The KD was determined by global nonlinear regression fitting of the association and dissociation curves according to the Langmuir binding isotherm model.

[1] = test system: hMpp8 chromodomain mutant, Lys100 mutated to proline; experiment: Histone H3K27 peptide pulldown, hMPP8 chromodomain mutant with Lys100 mutated to proline; format: binding, human; details: Fig. S1B
Excerpt: (§1) It is noteworthy that the sequence motif of H3K27 is similar to H3K9 tail (KAARK^27S versus QTARK^9S). However, methylated histone H3K27 cannot interact with hMPP8 chromodomain. To explain why hMPP8 specifically recognizes methylated H3K9, we built a mutant model that hMPP8 binds to methylated H3K27. We mutated residues Gln5 and Thr6 of the QTARK^9S motif to KA to generate a motif of KAARK^9S, which shared the same amino sequence around the K27 site in histone H3. […] To further validate the hypothesis, hMpp8 chromodomain mutants were designed to rescue the binding ability to H3K27me3. Based on our structures, residues Lys100, Glu101 and Val102 were mutated to proline, respectively, to generate enough space where the side chain of Lys5 can insert.
(§2) Supplementary file pone.0025104.s001.tif: Figure S1 hMPP8 specifically recognizes methylated H3K9 rather than H3K27. (A) A mutant structure model for hMPP8 binds to KAARK(me3)S histone motif. Gln5 and Thr6 of the QTARK^9S motif were mutated to KA in this model. (B) Histone H3K27 peptide pulldowns with proteins of wild type hMpp8 chromodomain and indicated mutants, respectively. […] Molecular mass was measured by size exclusion. (F) Binding affinity of hMPP8 chromodomain to H3K4me3 (left panel, measured by ITC method) and H3K27me3 peptide (right panel, measured by SPR method). […]

[2] = test system: hMpp8 chromodomain mutant, Glu101 mutated to proline; experiment: Histone H3K27 peptide pulldown, hMPP8 chromodomain mutant with Glu101 mutated to proline; format: binding, human; details: Fig. S1B
Excerpt: as §1, §2

[3] = molecular target: human MPP8 (M-phase phosphoprotein 8) chromodomain (human) (UniProt Q99549); experiment: SEC; gel filtration of hMPP8 chromodomain; column buffer 20 mM Tris (pH 8.0), 400 mM NaCl
[4] = molecular target: human MPP8 (M-phase phosphoprotein 8) chromodomain (human) (UniProt Q99549); experiment: SEC; size exclusion of hMPP8 chromodomain in the presence or in the absence of H3K9me3 peptide
[5] = Size exclusion chromatography, oligomerization state in solution; format: physicochemical; details: 20 mM Tris (pH 8.0), 400 mM NaCl, Fig. 1D
Excerpt: Figure 1 Overall structure of hMPP8 chromodomain. (A) Sequence alignment of chromodomains of human MPP8, Drosophila HP1 and Drosophila Polycomb. Secondary structural elements (arrows for β strands and rectangles for α helices) are indicated, η represent 3_10 helix. Methylated H3K9 binding residues are marked by stars. Residues involved in dimerization of human Mpp8 and Drosophila Polycomb are marked by diamonds and triangles, respectively. The alignment was created with Espript (http://espript.ibcp.fr/Espript/Espript). (B) Cartoon representation of the crystal structure of hMPP8 chromodomain. The two subunits of the homodimer are colored in cyan and green, respectively, and the secondary structure regions in both proteins are marked. (C) Interactions between the two subunits of the hMPP8 chromodomain homodimer. The dimer interface is formed by strand β2 through an antiparallel arrangement. (D) Gel filtration of hMPP8 chromodomain (left panel). The column buffer was 20 mM Tris (pH 8.0), 400 mM NaCl. The molecular weight of hMPP8 chromodomain monomer was measured using tricine-SDS-PAGE (right panel). TEXT PRINTED IN THE PICTURE: (D) no label printed: 100.09 ml (13.6 kDa)
To determine the oligomerization state of hMPP8 chromodomain in solution, size exclusion experiment was performed. […] The molecular weight of hMPP8 chromodomain monomer is about 8.0 kD. […]

In the case of “H3K27me3: synthetic H3K27me3 (residues 19 to 33) peptide (QLATKAARKSAPATG; K27 trimethylation; UniProt P68431 20-34, looked up, fragment)”, the “binding (SPR)” value (hMPP8 chromodomain) is reported as “does not exhibit detectable binding”, the “binding in peptide pulldown” value [1] is reported as “able to bind H3K27me3 peptide weakly” and the “binding in peptide pulldown” value [2] is reported as “able to bind H3K27me3 peptide weakly”.

“human MPP8 (M-phase phosphoprotein 8) chromodomain (from UniProt Q99549 56-116) (domain or fragment)” showed a stoichiometry N [3] of 2 and a stoichiometry N [4] of 2.

B1: hMPP8 chromodomain: recombinant chromodomain of human MPP8 (residue 56–116), expressed in BL21 (DE3) Codon plus RIL (protein, UniProt Q99549 56-116, looked up, fragment)
chain: EDVFEVEKILDMKTEGGKVLYKVRWKGYTSDDDTWEPEIHLEDCKEVLLEFRKKIAENKAK
modifications: chromodomain
notes: recombinant chromodomain of human MPP8 (residue 56–116), expressed in BL21 (DE3) Codon plus RIL
In the case of B1, the “oligomerization state in solution” value ([5]; free form) is reported as “homodimer” and the “apparent molecular weight in solution” value ([5]; monomer about 8.0 kD) is reported as 13.6 kD.
